Reference: patent US20250313626A1 (HARBOUR BIOMED SHANGHAI, published 2025)
Numbering of substitutions follows the chain as printed.

T1: Cynomolgus macaques CD200R1 isoform a on CHOK1 cells (CHOK1/cynoCD200R1a) (Cynomolgus macaques)
T1 chain: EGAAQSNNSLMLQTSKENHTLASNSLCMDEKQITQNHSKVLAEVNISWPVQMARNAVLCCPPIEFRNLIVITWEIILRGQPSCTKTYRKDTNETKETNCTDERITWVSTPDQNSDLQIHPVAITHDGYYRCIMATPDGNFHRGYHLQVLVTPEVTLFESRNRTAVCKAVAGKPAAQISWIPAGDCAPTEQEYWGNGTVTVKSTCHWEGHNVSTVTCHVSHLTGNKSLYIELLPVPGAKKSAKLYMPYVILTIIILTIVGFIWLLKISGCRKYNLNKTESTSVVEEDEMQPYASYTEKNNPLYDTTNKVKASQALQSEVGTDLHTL

T2: human CD200R1a protein (soluble recombinant) (human, UniProt Q8TD46 29-265)
T2 construct: Soluble protein used in BLI; also called human CD200R1 isoform a; not shown: His tag implied by capture on anti-Penta-HIS biosensors
T2 sequence: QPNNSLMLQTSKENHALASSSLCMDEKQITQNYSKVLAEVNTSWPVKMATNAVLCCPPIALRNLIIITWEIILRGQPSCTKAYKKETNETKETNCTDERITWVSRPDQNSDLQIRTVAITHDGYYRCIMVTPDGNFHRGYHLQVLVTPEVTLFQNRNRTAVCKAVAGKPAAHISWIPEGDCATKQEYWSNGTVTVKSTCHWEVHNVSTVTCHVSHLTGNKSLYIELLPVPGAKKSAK

T3: human CD200R1 isoform a on CHOK1 cells (CHOK1/hCD200R1a) (human, UniProt Q8TD46 25-348)
T3 construct: also called CHOK1/CD200R1a
T3 sequence: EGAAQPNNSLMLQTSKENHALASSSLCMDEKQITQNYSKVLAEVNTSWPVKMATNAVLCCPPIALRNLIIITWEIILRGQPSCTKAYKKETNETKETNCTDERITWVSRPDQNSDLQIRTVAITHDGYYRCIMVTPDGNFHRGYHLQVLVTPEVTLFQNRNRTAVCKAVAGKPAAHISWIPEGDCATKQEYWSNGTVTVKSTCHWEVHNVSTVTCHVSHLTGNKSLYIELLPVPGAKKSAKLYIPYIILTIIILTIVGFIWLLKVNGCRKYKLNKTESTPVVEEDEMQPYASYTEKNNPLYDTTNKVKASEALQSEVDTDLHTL

B1: PR002906 (antibody, V domains shown)
VH: QVQLQESGPGLVKPSETLSLTCTVSGYTITSGYDWSWIRQPPGKGLEWIGYINYGGSTNYKPSLGSRVTISVDTSKNQFSLKLSSVTAADTAVYYCARYNEYKSYIYDWYFDFWGQGTLVTVSS
VL: DIQMTQSPSSLSASVGDRVTITCKASKNIRSYLAWYQQKPGKAPKLLIYSGSTLHSGVPSRFSGSGSGTDFTLTISSLQPEDFATYYCQQHHEYPLTFGQGTKVEIKR
notes: also called recombinant IgG1 antibody of huDX182
B2: PR006480 (antibody, human IgG1, kappa, L234A L235A)
heavy: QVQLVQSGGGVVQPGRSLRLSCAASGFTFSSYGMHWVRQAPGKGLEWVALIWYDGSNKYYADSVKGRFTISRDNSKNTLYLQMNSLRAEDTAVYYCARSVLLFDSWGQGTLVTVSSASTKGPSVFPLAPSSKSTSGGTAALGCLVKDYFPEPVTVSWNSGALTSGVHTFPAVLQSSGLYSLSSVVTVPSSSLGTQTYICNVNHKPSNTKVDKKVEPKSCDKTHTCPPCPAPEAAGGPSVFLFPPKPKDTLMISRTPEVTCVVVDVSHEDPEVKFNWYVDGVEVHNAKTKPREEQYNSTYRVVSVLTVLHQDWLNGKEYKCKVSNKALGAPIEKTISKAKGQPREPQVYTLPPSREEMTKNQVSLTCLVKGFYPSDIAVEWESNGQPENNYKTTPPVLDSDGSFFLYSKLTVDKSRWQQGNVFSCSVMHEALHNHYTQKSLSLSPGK
light: DIQMTQSPPSLSASVGDRVTITCRASQSISSYLNWFQQKAGKAPKLLISATSNLQSGVPSRFSGSGSGTDFTLTISSLQPEDLATYYCQQSYSSPYTFGQGTKVEIKRTVAAPSVFIFPPSDEQLKSGTASVVCLLNNFYPREAKVQWKVDNALQSGNSQESVTEQDSKDSTYSLSSTLTLSKADYEKHKVYACEVTHQGLSSPVTKSFNRGEC
notes: also called PR6480
B3: PR007223 (antibody, human IgG1, kappa)
heavy: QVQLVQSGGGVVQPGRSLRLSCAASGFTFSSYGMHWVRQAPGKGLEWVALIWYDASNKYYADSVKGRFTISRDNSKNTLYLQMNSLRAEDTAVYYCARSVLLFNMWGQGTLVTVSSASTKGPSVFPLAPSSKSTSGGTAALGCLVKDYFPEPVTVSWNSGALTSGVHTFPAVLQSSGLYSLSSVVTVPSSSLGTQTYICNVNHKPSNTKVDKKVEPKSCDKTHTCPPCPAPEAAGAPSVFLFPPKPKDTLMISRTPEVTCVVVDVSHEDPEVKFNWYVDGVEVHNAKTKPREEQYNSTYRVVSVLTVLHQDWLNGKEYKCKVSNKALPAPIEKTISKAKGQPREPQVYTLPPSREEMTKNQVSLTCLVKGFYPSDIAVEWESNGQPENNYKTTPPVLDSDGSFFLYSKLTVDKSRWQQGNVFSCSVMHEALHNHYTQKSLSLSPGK
light: B2 light with M4L, S91T
notes: PTM variant of PR006895 (human IgG1)
B4: PR007221 (antibody, human IgG1, kappa)
heavy: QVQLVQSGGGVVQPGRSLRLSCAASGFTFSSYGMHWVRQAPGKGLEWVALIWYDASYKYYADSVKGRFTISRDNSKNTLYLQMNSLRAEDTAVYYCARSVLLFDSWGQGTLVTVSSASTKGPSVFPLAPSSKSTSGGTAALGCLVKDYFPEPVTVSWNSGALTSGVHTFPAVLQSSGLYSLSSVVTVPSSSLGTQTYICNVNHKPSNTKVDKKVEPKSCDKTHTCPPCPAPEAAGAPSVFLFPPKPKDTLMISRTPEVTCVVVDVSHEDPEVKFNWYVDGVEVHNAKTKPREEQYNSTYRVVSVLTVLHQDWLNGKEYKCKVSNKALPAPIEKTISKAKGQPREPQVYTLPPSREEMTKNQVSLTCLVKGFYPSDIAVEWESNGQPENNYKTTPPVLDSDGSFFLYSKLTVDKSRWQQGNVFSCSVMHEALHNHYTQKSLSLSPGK
light: B2 light with M4L, S91T, Y92L
notes: as for B3
B5: PR007973 (antibody, human IgG1, kappa, V domains shown)
VH: QVQLVESGGGVVQPGRSLRLSCAASGFTFSSYGFHWVRQAPGKGLEWLGIIWSDASNKYYADSVKGRFTISRDNSKNTLYLQMNSLRAEDTAVYYCARDRIVGEGFDYWGQGTLVTVSS
VL: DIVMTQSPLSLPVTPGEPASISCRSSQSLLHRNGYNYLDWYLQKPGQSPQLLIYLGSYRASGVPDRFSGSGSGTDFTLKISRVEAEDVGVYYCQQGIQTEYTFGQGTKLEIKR
notes: PTM variant of PR006839 (human IgG1)
B6: PR005474 (antibody, human IgG1, kappa, L234A L235A, V domains shown)
VH: QVQLVESGGGVVQPGRSLRLSCAASAFTFSSYGMHWVRQAPGKGLEWVALIWNDGSNKFYADSVKGRFTISRDNSKNTLFLQMNSLRAEDTAVYYCARDRILGAGFDYWGQGTLVTVSS
VL: not shown

Target: T1, Cynomolgus macaques CD200R1 isoform a …
Assay: flow cytometry, CHOK1/cynoCD200R1a cells (APC-A Mean); table beside the curves

Row | Binder | EC50 | MFI (MAX)
1 | B1 | 21.4 nM | 26800
2 | B2 | 19.5 nM | 34600
3 | B3 | 8.11 nM | 54200
4 | B4 | 7.37 nM | 53300

Target: T2, human CD200R1a protein (soluble …)
Assay: BLI in-tandem competition on His-captured human CD200R1a; row = 1st Ab (400 nM); competitor (2nd Ab) PR007221
Method: (§1) To determine if the anti-CD200R1 antibodies bind to human CD200R1a on different or approximate binding epitopes, epitope competition experiments for the anti-CD200R1 antibodies were performed by the ForteBlio Octet® RED96e platform. […] The in-tandem competition assay format was applied, and it contained two association steps. Firstly, the antigen-loaded biosensors bound to each antibody (i.e., First antibody, 1st Ab) at a saturating concentration of 400 nM for 300 seconds to reach equilibrium and then secondly bound to the competing antibodies (i.e., Second antibody, 2nd Ab) of 400 nM for 300 seconds. The second binding signals are recorded as the 100% signal of each antibody when the first antibodies are replaced by kinetic buffer. All the binding data were analyzed using ForteBlio Data Analysis 11.0 software. The inhibition rate was calculated by the following formula: […]

Row | Binder | Inhibition ratio (%)
5 | B3 | 101%
6 | B4 | 100%
7 | B5 | 100%

Target: T2, human CD200R1a protein (soluble …)
Assay: BLI in-tandem competition on His-captured human CD200R1a; row = 1st Ab (400 nM); competitor (2nd Ab) PR007223
Method: as §1

Row | Binder | Inhibition ratio (%)
8 | B3 | 91.8%
9 | B4 | 89%
10 | B5 | 91.7%

Target: T3, human CD200R1 isoform a on CHOK1 cells …
Assay: flow cytometry, CHOK1/hCD200R1a cells; table beside the curves, head without unit, x axis Log [Ab] (nM)
Method: This example is intended to investigate the in vitro binding activity of human anti-CD200R1 monoclonal antibodies to human/Cynomolgus macaques CD200R1a expressed on the surface of cells. The anti-CD200R1 antibodies were produced as described in Example 3.4 and the binding experiments at the cell level were performed using CHOK1/hCD200R1a and CHOK1-cynoCD200R1a.
Briefly, CHOK1/hCD200R1a cells and CHOK1-cynoCD200R1a cells were digested, and collected, and then were resuspended in PBS containing 2% BSA, respectively. The cell density was adjusted to 1×10⁶ cells/mL. The cells were seeded in a 96-well V-bottom plate (Corning, #3894) at 100 μL/well, followed by the addition of test antibodies and reference antibodies in a series diluted concentration, each at 100 μL/well. The cells were incubated away from light at 4° C. for 1 h. Thereafter, the cells in each well were rinsed twice with 100 μL of pre-cooled PBS containing 2% BSA, and centrifuged at 500 g at 4° C. for 5 min, and then the supernatant was discarded. 100 μL of fluorescent secondary antibody (Alexa Fluor 488-conjugated AffiniPure Goat Anti-Human IgG, Fcγ Fragment Specific, Jackson, #109-545-098, diluted in a 1:1000 ratio) was added in each well, and the plate was incubated away from light at 4° C. for 1 h. The cells in each well were rinsed twice with 100 μL of pre-cooled PBS containing 2% BSA, and centrifuged at 500 g at 4° C. for 5 min, and then the supernatant was discarded. Finally, the cells in each well were resuspended in 200 μL of pre-cooled PBS containing 2% BSA, and the fluorescence signal values were read using a BD CantoII flow cytometer.

Row | Binder | EC50
11 | B1 | 14.8 nM
12 | B6 | 9.36 nM
13 | B2 | 33 nM

Target: T3, human CD200R1 isoform a on CHOK1 cells …
Assay: flow cytometry blocking assay: antibody titrated against biotin-labelled human CD200 binding to CHOK1/hCD200R1a cells; head prints EC50 without unit, x axis Log [Ab] (nM), y axis Inhibition %
Method: In brief, CHOK1/hCD200R1a cells were digested and resuspended in 2% BSA in PBS. […] The cells were placed at 4° C. and incubated for 1 hour in the dark. […] 100 μL/well of pre-cooled PBS containing 2% BSA was added to rinse the cells twice, centrifugation was performed at 500 g, 4° C. for 5 minutes, and the supernatant was discarded. Fluorescent secondary antibody (PE Streptavidin, BD, Cat #: 554061, 1:200) was added at 100 μL/well, and incubation was performed at 4° C. for 30 minutes in the dark. The cells were washed twice with 200 μL/well of pre-cooled PBS, and were centrifuged at 500 g, 4° C. for 5 minutes, and the supernatant was discarded. Finally, 200 μL/well of pre-cooled PBS was used to resuspend the cells, and the fluorescence signal values were read using ACEA Novocyte 3000 flow cytometer. IC50 values were calculated.

Row | Binder | EC50
14 | B1 | 0.479 nM
15 | B2 | 0.164 nM
16 | B3 | 0.122 nM
17 | B4 | 0.194 nM
